Laboratory results from the supplement of paper PMC9170038.

Tested on: K4 kissing-loop RNA reporter
Experiment: apparent KD of K4 kissing-loop reporter; higher = weaker reporter binding
Settings: Eterna round: R107
Description: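 RNA-MaP round R107: designed RNA switches with theophylline, tryptophan, arginine or FMN aptamers are transcribed on-chip within common flanks. They are titrated with a labelled K4 kissing-loop RNA reporter in RNA-MaP buffer (100 mM Tris pH 7.5, 80 mM KCl, 4 mM MgCl2), without ligand or with the indicated ligand. Median apparent KD per design.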

[1] = input ligand: theophylline 20 uM
[2] = input ligand: tryptophan 2.4 mM
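Further: bound reporter read as fluorescence of individual clusters on recovered sequencing chips by microscopy, with normalized cluster intensities fitted with a binding model.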

Sequence | apparent KD of K4 kissing-loop reporter (input ligand: FMN 200 uM) [nM] | apparent KD of K4 kissing-loop reporter (input ligand: arginine 13.2 mM) [nM] | apparent KD of K4 kissing-loop reporter (input ligand: none) [nM] | apparent KD of K4 kissing-loop reporter [1] [nM] | apparent KD of K4 kissing-loop reporter [2] [nM]
UGUGUUUACCUGACUCAGUGAUGUUGAGAAGGAGCGUGCGAAGGCACAGGUAGGUCGCUCAACCUAAAUUCAGGUGAGCACUAAA | 249 | 168 | 344 | 281 | 250
UGUUUUUUUUUGAUGUUUGUUGUAAAAUGGCAGGAUAUCGUAGAGGCGAGAAGGGCUUUUAUGCGUUAUGAGUGAUGUUUGUAGG [vevvmullin] | 418 | 252 | 381 | 269 | 284
UUAAUAAUUCAAGGAUAUGUUUUCUAUUUCGAGUGAUGUUCGGAAUUAAUAAAUUUAAAAGAUUAUACAGAAGGUGAUAGAUAGU [Cynwulf-mod#3] | 89.5 | 82.5 | 90.9 | 88.1 | 75.9
UUAAUAAUUCAAGGAUAUGUUUUCUAUUUCGAGUGAUGUUCGGAAUUAAUAAAUUUAAAAGAUUAUACAGAAGGUGAUGGAUAGU [Cynwulf-mod#4] | 114 | 117 | 109 | 129 | 90.3
UUACGGUCCUCGGCCGCCACUCAUAGUGAUGUUAUGCUGCCUGAAGGCACCGGACCUGGAUAUCAGAGGACCGGGAGGCCAUUCG [theeternabot_exclusion_KL_Trp_B_6] | 793 | 590 | 810 | 560 | 544
UUAGAGGCCCAGUGAUGUUGGGUGGUUGGGCGAGGACCGGUACGGCCGCCACUCGCCGCGGAACUAUCGGAAUCUCGCUCGGCUA [Aninxearqu] | 277 | 233 | 239 | 309 | 256
UUAGCCCUAUAGGGCAAGACCUAUACUGAUACCAGAGGGUAUACCCUCCCUUGGCAGCGGAUCGAGUGAUGUUCGUAAGGUCAUU [AK4.4 SS Theophylline A] | 741 | 730 | 844 | 776 | 572
UUAGGAGUGGAAGGAUAUCCUGGUGUGGGUGAUGUUAGUGAUGUUGAAAGUGCAGUGAUGUUGCGCGGAGAAGGUCCGGUGUUGA [BDazzled - #7 - Exc. FMN B] | 180 | 153 | 173 | 256 | 157
UUAGGAGUGGGAGGAUAUCCUGGUGUGGGUGAUGUUAGUGAUGUUGAAAGUGUAGUGAUGUUGUGCGGAGAAGGUCCAGUGUUGA [BDazzled - #10 - Exc. FMN B] | 504 | 295 | 459 | 646 | 292
UUAGUUGAAAGUGAUACCAGACAAGUUAAGAGAAGAAAUUAAGUUGGAGUGAUGUUCCAAGUCCCUUGGCAGCACAUUGUAAUUU [Same State Theophylline B GF12] | 101 | 211 | 129 | 256 | 126
UUAUACAACUGAAGGAGCGCCAGUGAUGUUGGCGUGACGACUGCUUCCUUCGCCGAGUCCUGGCAGGUAGGUCGCAGUUGCUGAA [Oratgere] | 82.6 | 97.2 | 113 | 99 | 94.8
UUAUAUCUCUGACUUUCACUUUGCGUAUCUGAGGAUAUCUGAAUUCAGAGAAGGCAGUGAUGUUGCUUUGCUGUGUGUCUGAGAA [AK2 Exc FMN A] | 702 | 464 | 526 | 499 | 372
UUAUGUUUAGUUCACCCAGUGAUGUUGGAAGGAGCGUGCGAAAGCACAGGUAGGUCGCCAACCUUAAAGUGUCUUGAUUAUCUAA [JR_Nu_ExcArginiA_Sub029] | 400 | 499 | 411 | 386 | 364
UUAUUAAUAACAGAUACCAGUCCAGAAUGAAUACUAUAGUGAUGUUAUAAUAAAGGGAAGGACCCUUGGCAGCUGUAAUAUAUUU [AstrosSSTheB#1] | 431 | 381 | 501 | 338 | 368
UUCAGUGACAUACGAGUGAUGUUCGUAAUACGAGGACCGGUACGGCCGCCACUCGCACGUCGGCAGUUUGUUCAUGCAUCAGACU | 226 | 160 | 259 | 255 | 514
UUCAGUGAUGAUGAACACUGUUGUAUAAACUAGGAUAUGCUGAUAAGCAGAAGGAGUGAUGUUCCGUUCAUCAUCAGAAUUAAAU [KL-XFMN-A4] | 619 | 378 | 371 | 407 | 255
UUCGAAAGUCGAAGGAGCGCUGGCGGUCAUAGACUAUAUCUGUAGUGAUGUUACAGAUUCCAGCAGGUAGGUCGCGACAGAGACA [Arg B SS t18b] | 124 | 88.4 | 107 | 89.8 | 108
UUCGAUCAGUGAUGUUGAUCAAUAGUCGAAGGAGCGCUAUAGAUAGCAGGUAGGUCGCGGCUACAGGGUGUUAAGACACCCAGAA [#13 K4 Arginine A Same State] | 534 | 450 | 453 | 477 | 488
UUCGAUCAGUGAUGUUGAUCAUCAGUCGAAGGAGCGCUAGAGAUAGCAGGUAGGUCGCGACUGCAAGGUGUGAGAACACCUCGAA [Arg A SS t9a] | 457 | 358 | 487 | 444 | 255
UUCUUGAUGGAAACAUCGAGUAUUACUGAUACCAGUAUCGAUAGAUACCCUUGGCAGCAGAAUCAGUAAUAACGAGUGAUGUUCG [Ex Theophylline A K4 5] | 509 | 494 | 505 | 567 | 480
UUGAGCCGGACGUAAGUCCGGCUCUGCGAGCGAGGACCGGUACGGCCGCCACUCGGUGCAGUGAUGUUGCAUGGCCGCAAGGCCG [#2 Exclusion - Tryptophan A Attempt #5 (HarryS)] | 324 | 233 | 235 | 394 | 278
UUGCAAGAGUCGGCCGCCACUCCGGGCCCUAUAAAUGGGCGCAGUGAUGUUGCGGCUAGGCCUCUGAGGACCGGGACUUUGUAGC [Ateusraor] | 51 | 55.4 | 78.5 | 82.9 | 111
